Usually Kd stands for a measure of binding affinity in units of concentration.

Bounds are passed on as bounds.

One experiment addresses HLA-B*51:01. The experiment in a line: IEDB peptide-MHC binding, purified MHC/direct/fluorescence; filed as Kd, often an IC50 or EC50 that approximates it; ≥ and ≤ were set here for values at or beyond the usual limits of such assays. Particulars: source organism: Tetraodon nigroviridis.
The target in a further experiment is HLA-B*27:05. Described as above.
For another experiment, the target named is HLA-B*08:01. Described as above.
A further experiment deals with HLA-A*01:01. The description is as above.
In a further experiment the target is HLA-B*44:02. The experiment is described as above.
Another experiment has as its target HLA-B*39:01. The experiment is described as above. To be noted: source organism: Influenza A virus (A/duck/Mongolia/47/2001(H7N1)).
In the next experiment the target is HLA-B*07:02. Described as above.
The target of a further experiment is HLA-A*24:02. The experiment is described as above. To be noted: source organism: Influenza A virus (A/duck/Mongolia/47/2001(H7N1)).
Experiment [1] deals with HLA-B*58:01. The experiment is described as above.
Another experiment has as its target HLA-B*18:01. The description is as above. To be noted: source organism: Influenza A virus (A/duck/Mongolia/47/2001(H7N1)).
Another experiment concerns the target HLA-A*11:01. Described as above.
Another experiment has as its target HLA-B*46:01. The experiment is described as above. Particulars: source organism: Influenza A virus (A/duck/Mongolia/47/2001(H7N1)).
Another experiment has as its target HLA-B*15:01. Described as above.
A further experiment addresses HLA-A*02:01. The experiment is described as above.
In the next experiment the target is HLA-A*03:01. The description is as above.
The target in another experiment is HLA-A*26:01. Described as above.
The next experiment addresses HLA-B*40:01. Described as above.
The next experiment has as its target HLA-A*31:01. The experiment is described as above.
For the next experiment, the target named is HLA-A*02:50. Briefly: IEDB peptide-MHC binding, purified MHC/competitive/fluorescence; filed as Kd, often an IC50 or EC50 that approximates it; ≥ and ≤ were set here for values at or beyond the usual limits of such assays.
The next experiment has as its target HLA-A*24:03. The experiment in a line: IEDB peptide-MHC binding, purified MHC/direct/fluorescence; filed as Kd, often an IC50 or EC50 that approximates it; ≥ and ≤ were set here for values at or beyond the usual limits of such assays.
For experiment [2], the target named is HLA-B*58:01. The experiment in a line: IEDB peptide-MHC binding, purified MHC/competitive/radioactivity; filed as Kd, often an IC50 or EC50 that approximates it; ≥ and ≤ were set here for values at or beyond the usual limits of such assays.
Another experiment deals with HLA-B*57:01. Described as above.
The target in a further experiment is HLA-B*35:01. Briefly: IEDB peptide-MHC binding, purified MHC/direct/fluorescence; filed as Kd, often an IC50 or EC50 that approximates it; ≥ and ≤ were set here for values at or beyond the usual limits of such assays.
The next experiment has as its target HLA-A*69:01. The description is as above.
The target in the next experiment is HLA-A*30:01. The experiment is described as above. To be noted: source organism: Giardia lamblia ATCC 50803.
The mark [3] stands for this setting: source organism: Influenza A virus (A/duck/Mongolia/47/2001(H7N1)).
The mark [4] stands for this setting: source organism: Camelpox virus M-96.
Setting [5] is: source organism: Dengue virus 2 Peru/IQT2913/1996.
The mark [6] stands for this setting: source organism: Dengue virus 1 Brazil/97-11/1997.
The mark [7] stands for this setting: source organism: Escherichia coli O157:H7.
The mark [8] stands for this setting: source organism: Giardia lamblia ATCC 50803.
Where [9] appears, read: source organism: Salmonella enterica.
Where [10] appears, read: source organism: Vibrio parahaemolyticus.
[11] abbreviates: source organism: Yersinia pestis.
[12] abbreviates: source organism: Brucella melitensis.
The mark [13] stands for this setting: source organism: Rickettsia typhi.

In the experiment with HLA-B*51:01, LPAQGLIEF showed a Kd of 11.3 µM.
Take THFQRKRRV: the Kd in the experiment with HLA-B*27:05 (setting [3]), with HLA-B*08:01 (setting [3]), with HLA-A*01:01 (setting [3]), with HLA-B*44:02 (setting [3]), in the experiment with HLA-B*39:01 and with HLA-B*07:02 (setting [3]) was at least 20 µM each time. Moreover, the Kd with HLA-A*24:02, with HLA-B*58:01 [1] (setting [3]), in the experiment with HLA-B*18:01, in the experiment with HLA-A*11:01 (setting [3]), in the experiment with HLA-B*46:01 and with HLA-B*15:01 (setting [3]) was at least 20 µM throughout. For the same sequence, the Kd with HLA-A*02:01 (setting [3]), with HLA-A*03:01 (setting [3]), with HLA-A*26:01 (source organism: Influenza A virus(A/swine/Henan/3/2004(H9N2))), with HLA-B*40:01 (setting [3]) and with HLA-A*31:01 (setting [3]) was at least 20 µM in each case.
In the case of VMCIQMKYV, the equilibrium dissociation constant (Kd) is 0.0181 µM in the experiment with HLA-A*02:50 (source organism: Variola virus); at least 20 µM with HLA-B*27:05 (setting [4]); at least 20 µM with HLA-B*08:01 (setting [4]); at least 20 µM with HLA-A*01:01 (setting [4]); at least 20 µM with HLA-B*44:02 (setting [4]); at least 20 µM with HLA-B*07:02 (setting [4]). For the same sequence, the Kd with HLA-B*58:01 [1] (setting [4]), with HLA-A*11:01 (setting [4]), with HLA-A*24:03 (setting [4]), in the experiment with HLA-B*15:01 (setting [4]), with HLA-A*02:01 (setting [4]) and in the experiment with HLA-A*03:01 (setting [4]) was at least 20 µM each time. The Kd with HLA-A*26:01 (setting [4]), with HLA-B*40:01 (setting [4]) and with HLA-A*31:01 (setting [4]) was at least 20 µM throughout.
For LTSKELMMTT, the figures for the Kd with HLA-B*58:01 [2] (setting [5]) and in the experiment with HLA-B*57:01 (setting [5]) were 0.422 µM and 0.246 µM, respectively.
Take ATLFVWYFW: the Kd with HLA-B*58:01 [2] (setting [6]) was 0.2 µM; with HLA-B*57:01 (setting [6]), 0.115 µM.
On to LGSQEGAMHT, for which the Kd with HLA-B*58:01 [2] (source organism: Dengue virus 2 Jamaica/1409/1983) is 0.548 µM.
As for WMDMWESPM, the Kd in the experiment with HLA-A*02:50 (source organism: Escherichia coli O157:H7 str. Sakai) was 0.0004 µM; with HLA-A*02:01 (setting [7]), 1.01 µM.
As to SVKERGPAY, the Kd with HLA-B*27:05 (setting [8]) is at least 20 µM; in the experiment with HLA-B*08:01 (setting [8]) it was at least 20 µM; in the experiment with HLA-B*35:01 (setting [8]), 0.0394 µM; in the experiment with HLA-A*01:01 (setting [8]) it was at least 20 µM; with HLA-B*44:02 (setting [8]), at least 20 µM; in the experiment with HLA-B*07:02 (setting [8]), at least 20 µM. In addition, the Kd with HLA-B*58:01 [1] (setting [8]) is at least 20 µM; with HLA-A*11:01 (setting [8]), 0.105 µM; in the experiment with HLA-A*69:01 (setting [8]), at least 20 µM; in the experiment with HLA-B*15:01 (setting [8]), 0.179 µM; with HLA-A*02:01 (setting [8]) it was at least 20 µM; in the experiment with HLA-A*03:01 (setting [8]), 0.61 µM. Besides, the Kd is 0.0246 µM with HLA-A*26:01 (setting [8]), at least 20 µM with HLA-B*40:01 (setting [8]), at least 20 µM in the experiment with HLA-A*31:01 (setting [8]) and 0.0354 µM with HLA-A*30:01.
Regarding ATGDYVAFV, the Kd with HLA-A*02:50 (source organism: Salmonella enterica subsp. enterica serovar Typhi) came out at 0.0009 µM; with HLA-A*69:01 (setting [9]), 0.0158 µM; in the experiment with HLA-A*02:01 (setting [9]) it was 0.067 µM.
Consider MSSAMSMMH, for which the Kd was at least 20 µM in the experiment with HLA-B*27:05 (setting [10]); at least 20 µM in the experiment with HLA-B*08:01 (setting [10]); 0.0728 µM in the experiment with HLA-B*35:01 (setting [10]); 6.94 µM with HLA-A*01:01 (setting [10]); at least 20 µM with HLA-B*44:02 (setting [10]); at least 20 µM with HLA-B*07:02 (setting [10]). The Kd with HLA-B*58:01 [1] (setting [10]) is 0.624 µM; with HLA-A*11:01 (setting [10]) it was 0.154 µM; with HLA-A*24:03 (setting [10]) it was 5.11 µM; with HLA-A*69:01 (setting [10]), at least 20 µM; with HLA-B*15:01 (setting [10]), 2.58 µM; in the experiment with HLA-A*02:01 (setting [10]) it was at least 20 µM. Moreover, the Kd is 0.0661 µM with HLA-A*03:01 (setting [10]), at least 20 µM in the experiment with HLA-A*26:01 (setting [10]) and at least 20 µM with HLA-B*40:01 (setting [10]).
Turning to LAIPVTMTL, the Kd with HLA-B*58:01 [2] (source organism: Dengue virus 4 Philippines/H241/1956) stood at 0.00134 µM.
As to GMFIIFIPI, the dissociation constant (Kd) was found to be 0.395 µM with HLA-A*02:50 (source organism: Yersinia pestis Nepal516), 5.42 µM with HLA-A*69:01 (setting [11]) and 8.84 µM in the experiment with HLA-A*02:01 (setting [11]).
Take ALFEDYPGC: the Kd with HLA-A*02:50 (setting [12]) was 0.0062 µM; with HLA-B*27:05 (setting [12]), at least 20 µM; with HLA-B*08:01 (setting [12]), at least 20 µM; in the experiment with HLA-A*01:01 (setting [12]) it was at least 20 µM; with HLA-B*44:02 (setting [12]), at least 20 µM; with HLA-B*07:02 (setting [12]), at least 20 µM. Besides, the Kd with HLA-B*58:01 [1] (setting [12]) is at least 20 µM; with HLA-A*11:01 (setting [12]), at least 20 µM; with HLA-A*24:03 (setting [12]), at least 20 µM; in the experiment with HLA-A*69:01 (setting [12]), at least 20 µM; in the experiment with HLA-B*15:01 (setting [12]) it was at least 20 µM; with HLA-A*02:01 (setting [12]), 0.354 µM. Besides, the Kd with HLA-A*03:01 (setting [12]), in the experiment with HLA-A*26:01 (setting [12]), in the experiment with HLA-B*40:01 (setting [12]) and with HLA-A*31:01 (setting [12]) was at least 20 µM throughout.
Take RPPRRGDKF: the Kd with HLA-B*27:05 (setting [7]) was at least 20 µM; in the experiment with HLA-B*35:01 (setting [7]) it was 1.37 µM; with HLA-A*01:01 (setting [7]), at least 20 µM; in the experiment with HLA-B*44:02 (setting [7]), at least 20 µM; with HLA-B*07:02 (setting [7]) it was 0.223 µM; with HLA-B*58:01 [1] (setting [7]), at least 20 µM. Moreover, the Kd in the experiment with HLA-A*11:01 (setting [7]), with HLA-A*69:01 (setting [7]), with HLA-B*15:01 (setting [7]), with HLA-A*02:01 (setting [7]), with HLA-A*03:01 (setting [7]) and with HLA-A*26:01 (setting [7]) was at least 20 µM throughout. Besides, the dissociation constant Kd with HLA-B*40:01 (setting [7]) and in the experiment with HLA-A*31:01 (setting [7]) was at least 20 µM throughout.
For APILVVSGI, the dissociation constant (Kd) with HLA-B*27:05 (setting [13]) was at least 20 µM; with HLA-B*08:01 (setting [13]), at least 20 µM; in the experiment with HLA-B*35:01 (setting [13]), 0.289 µM; with HLA-A*01:01 (setting [13]) it was at least 20 µM; with HLA-B*44:02 (setting [13]) it was at least 20 µM; with HLA-B*07:02 (setting [13]), 0.157 µM. In addition, the Kd with HLA-B*58:01 [1] (setting [13]) is at least 20 µM; in the experiment with HLA-A*11:01 (setting [13]) it was at least 20 µM; in the experiment with HLA-A*24:03 (setting [13]) it was 14.8 µM; with HLA-A*69:01 (setting [13]), at least 20 µM; with HLA-B*15:01 (setting [13]), at least 20 µM; with HLA-A*02:01 (setting [13]) it was at least 20 µM. The dissociation constant Kd with HLA-A*03:01 (setting [13]), with HLA-A*26:01 (setting [13]), in the experiment with HLA-B*40:01 (setting [13]) and with HLA-A*31:01 (setting [13]) was at least 20 µM throughout.

Values taken from the Immune Epitope Database (IEDB).
